How the values were obtained:
[1] = biological target: T1, His6-Smt3-Parkin (full-length human parkin, tag kept, labelled with RED-tris-NTA) (human, UniProt O60260 1-465, RED-tris-NTA dye bound to the His tag (Monolith His-Tag Labelling Kit RED-tris-NTA 2nd Generation)); assay: MST; His6-Smt3-Parkin constructs labelled with RED-tris-NTA; unlabelled partner in up to 16 1:1 serial dilutions (from 50 µM for Miro1^181-579); 25°C; PBS-T (PBS 1x, 0.05% Tween 20); 1:1 fit; settings: both partners purified
T1 construct: human parkin, full-length; Used for MST only; source: E. coli BL21(DE3), purified; not shown: His6, N-terminal, kept; Smt3, N-terminal, kept
T1 sequence (O60260 whole entry): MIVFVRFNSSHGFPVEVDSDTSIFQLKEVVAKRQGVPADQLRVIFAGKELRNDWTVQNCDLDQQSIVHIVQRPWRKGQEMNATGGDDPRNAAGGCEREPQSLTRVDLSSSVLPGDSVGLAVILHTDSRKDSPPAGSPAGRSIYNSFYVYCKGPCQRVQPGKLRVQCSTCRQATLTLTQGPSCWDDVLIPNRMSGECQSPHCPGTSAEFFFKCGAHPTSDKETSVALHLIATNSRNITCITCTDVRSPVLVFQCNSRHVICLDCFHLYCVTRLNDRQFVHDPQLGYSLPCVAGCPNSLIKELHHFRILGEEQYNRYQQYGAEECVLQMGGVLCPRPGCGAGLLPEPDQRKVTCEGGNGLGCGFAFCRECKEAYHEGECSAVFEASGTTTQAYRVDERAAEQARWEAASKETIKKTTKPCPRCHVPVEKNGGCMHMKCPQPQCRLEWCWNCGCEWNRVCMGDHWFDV

[2] = biological target: T2, human parkin, full-length, affinity tag cleaved (human, UniProt O60260 1-465); assay: MST + ITC; parkin with CISD1 (Supplementary Fig. S2); the text names 'either MST or ITC' and does not tell which was used for CISD1; settings: both partners purified
T2 construct: human parkin (RBR E3 ubiquitin ligase), full-length; the MST used the uncleaved His6-Smt3 form; also called unphosphorylated parkin; source: E. coli BL21(DE3), purified (Ni-NTA HisTrap FF, Ulp1 cleavage, gel filtration); not shown: His6, N-terminal, cleaved; Smt3, N-terminal, cleaved
T2 sequence (O60260 whole entry): as above

Kd [1] [µM]	Kd [2] [µM]	Binder
> 100		Miro1^181-579 (near full-length, soluble construct of Miro1 that lacks only its GTPase1 domain) (domain or fragment, human, UniProt Q8IXI2 181-579, looked up, source: E. coli BL21(DE3); purified as previously described by Kumar et al. [11]) MKPACIKALTRIFKISDQDNDGTLNDAELNFFQRICFNTPLAPQALEDVKNVVRKHISDGVADSGLTLKGFLFLHTLFIQRGRHETTWTVLRRFGYDDDLDLTPEYLFPLLKIPPDCTTELNHHAYLFLQSTFDKHDLDRDCALSPDELKDLFKVFPYIPWGPDVNNTVCTNERGWITYQGFLSQWTLTTYLDVQRCLEYLGYLGYSILTEQESQASAVTVTRDKKIDLQKKQTQRNVFRCNVIGVKNCGKSGVLQALLGRNLMRQKKIREDHKSYYAINTVYVYGQEKYLLLHDISESEFLTEAEIICDVVCLVYDVSNPKSFEYCARIFKQHFMDSRIPCLIVAAKSDLHEVKQEYSISPTDFCRKHKMPPPQAFTCNTADAPSKDIFVKLTTMAMY
	> 100	human CISD1 (residues 32-108), entire extramembranous portion (domain or fragment, UniProt Q9NZ45 32-108, looked up, human CISD1 (MitoNEET) lacking only its transmembrane domain, residues 32-108; also called MitoNEET; source: E. coli BL21(DE3) with FeCl3 in the media, purified (Ni-NTA, TEV cleavage, gel filtration); not shown: His6, N-terminal, cleaved) KRFYVKDHRNKAMINLHIQKDNPKIVHAFDMEDLGDKAVYCRCWRSKKFPFCDGAHTKHNEETGDNVGPLIIKKKET
